Experimental findings from publication PMC6414729 are described below.

Substrate in assay [1]: CB-PB phycobilisome (truncated phycobilisome of the CB mutant of Synechocystis PCC 6803) (Synechocystis PCC 6803) (UniProt Q01951)
Compound in assay [2]: CB-PB phycobilisome (truncated phycobilisome of the CB mutant of Synechocystis PCC 6803) (Synechocystis PCC 6803) (UniProt Q01951)
Briefly: ABEL trap single-molecule fluorescence spectroscopy; pre-activated and pre-bound OCP + CB-PB (40:1) diluted to ~10 pM in 0.8 M phosphate buffer pH 7.5 with 1 M sucrose; single complexes in free solution; followed up to 5 h after dilution.

Substrate in assay [3]: CB-PB phycobilisome (truncated phycobilisome of the CB mutant of Synechocystis PCC 6803) (Synechocystis PCC 6803) (UniProt Q01951)
This is another data set of the same source.

Substrate in assay [4]: CB-PB phycobilisome (truncated phycobilisome of the CB mutant of Synechocystis PCC 6803) (Synechocystis PCC 6803) (UniProt Q01951)
Briefly: bulk fluorescence quenching (emission spectrum and lifetime decay); OCP:CB-PB 40:1 in 0.8 M phosphate buffer, illuminated with white light 10 min at 23 °C; bulk sample ~25 nM.

B1: Orange Carotenoid Protein, photoactivated red form (OCP^R) (natural protein)
chain: MPFTIDSARGIFPNTLAADVVPATIARFSQLNAEDQLALIWFAYLEMGKTLTIAAPGAASMQLAENALKEIQAMGPLQQTQAMCDLANRADTPLCRTYASWSPNIKLGFWYRLGELMEQGFVAPIPAGYQLSANANAVLATIQGLESGQQITVLRNAVVDMGFTAGKDGKRIAEPVVPPQDTASRTKVSIEGVTNATVLNYMDNLNANDFDTLIELFTSDGALQPPFQRPIVGKENVLRFFREECQNLKLIPERGVTEPAEDGFTQIKVTGKVQTPWFGGNVGMNIAWRFLLNPEGKIFFVAIDLLASPKELLNFA
On to B1, for which, in assay [1], the bulk fluorescence emission of fully quenched OCP + CB-PB (40:1) relative to unquenched CB-PB stood at 9% and the bulk fluorescence lifetime, shorter component of the quenched OCP + CB-PB complex (unquenched 1.6 ns) came to 0.1 ns. Besides, the stoichiometry N (as a rule, a count of units in the complex or per binding partner) in assay [2] was 2. Moreover, in assay [3], the brightness of quenched state Q1 relative to unquenched CB-PB stood at 11% and the brightness of quenched state Q2 relative to unquenched CB-PB stood at 6%. Besides, in assay [4], the percent of complexes quenched is above 95%.
